Non-standard residues stand in square brackets, D forms with d. No end group written: not given here. Ahx = NCCCCCC(=O)O
T1: A199 N-terminal neo-epitope peptide AGQPLQ-Acp-C (SEQ ID NO:51) conjugated to BSA (human, not fully specified (residue 8); printed as AGQPLQ-Acp-C; also: C-terminal Cys conjugated to BSA carrier)
T1 construct: BSA carrier; also called A199-BSA peptide
T1 peptide: AGQPLQ[Ahx]C


What was measured:
[1] = target: T2, recombinant C-terminal ApoE fragment G200-HIS (ApoE-G200-H299-10xHIS) (human, UniProt P02649 218-317); experiment: SPR (Biacore 8K), G200-HIS amine-coupled on CM5, antibody as analyte, bivalent analyte fit (KD1)
T2 construct: also called G200-HIS fragment
T2 sequence (P02649 other isoform, or with tags, fused parts or gaps limits assumed): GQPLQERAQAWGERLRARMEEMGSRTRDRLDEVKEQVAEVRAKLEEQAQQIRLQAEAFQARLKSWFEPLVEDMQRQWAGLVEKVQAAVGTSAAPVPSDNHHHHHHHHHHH

[2] = target: T1, A199 N-terminal neo-epitope peptide …; experiment: direct ELISA, target coated at 1 ug/ml, antibody in 3-fold dilutions from 500 ng/ml, OD 450 nm
Experimental: Selectivity evaluation of recombinant antibodies by direct ELISA: The direct ELISA described below was used to evaluate the binding selectivity of the recombinant antibodies produced in Example 11.
(§1) The screening was performed according to standard ELISA protocols. Briefly, 1 μg/ml solutions of BSA-conjugated neo-epitope peptides, recombinant C-terminal ApoE fragment, negative control peptide and full-length ApoE were prepared by dilution in PBS. 50 μl/well were added to an ELISA half-area 96 well microtiter plate, the plate was sealed with adhesive sealer and incubated over night at 4° C. After discarding the solution, the plates were blocked with 150 μl/well of protein-free blocking solution (Pierce) for 1 h at room temperature with shake (900 rpm). The plates were washed four times with washing buffer containing 0.28 mM NaH₂PO₄, 2.5 mM Na₂HPO₄, 150 mM NaCl, 0.1% TWEEN®-20 and 0.0075% Kathon CG. Generated recombinant antibodies of interest were serially diluted 3-fold with a starting dilution at 0.5 μg/ml (mixed 1:1 with dilution buffer: PBS with 0.1% BSA and 0.05% TWEEN®-20). An anti-ApoE C-terminal antibody was used as a reference antibody (ApoE E-8 mouse monoclonal, cat. no. sc-393302; Santa Cruz Biotechnology). 50 μl/well were added into the ELISA plates and incubated for 2 h at room temperature with shake (900 rpm). The plates were washed four times as described previously. […] After another wash (as described previously), 50 μl/well of K-Blue® aqueous substrate (Neogen) were added, and the reaction was stopped after 5-15 min with 50 μl/well of 0.5 M […]. The optical density at 450 nm was read using an ELISA reader (Tecan).

[3] = target: T1, A199 N-terminal neo-epitope peptide …; experiment: direct ELISA, second protocol; proteins coated at 0.1 uM, BSA peptides at 1 ug/ml; antibody in 3-fold dilutions from 3000 ng/ml; blank reduced OD 450 nm
Experimental: as §1, with “Generated recombinant antibodies of interest were serially diluted 3-fold with a starting dilution at 0.5 μg/ml (mixed 1:1 with dilution buffer: PBS with 0.1% BSA and 0.05% TWEEN®-20).” left out, “(Tecan). The optical density was plotted against the antibody concentration to generate concentration-response curves (FIG. 16).” for “(Tecan).”
These were added in the same molarity (0.1 μM) to provide an equal number of molecules available for binding by the antibodies (BSA-coupled peptides were coated at 1 μg/ml as before).

Row | Binder | Kd [1] [nM] | binding result [2] | EC50 (read off the curve) [3] [µg/mL]
1 | 7B10, recombinant IgG2c antibody (antibody, V domains shown, also called 7610) VH: AVQLVESGGGLVKPGRSLKLSCAASGFTFSSYAMSWVRQFPDKRLDWVAEISSGGGSTNYLDTVTGRFTISRDNAKNTLYLEMNSLRSEDTAMYYCARQLVGTDYYGTDYWGQGTSVTVSS VL: DVLMTQTPLSLPVSLGDQASISCRSSQNIVYSNGNTYLEWYLQKPGQSPKLLIYKVSNRFSGVPDRFSGSGSGTDFTLKISRVEAEDLGVYYCFQGSHVPYTFGGGTKLEIK | 330 | no binding (tested: 500 ng/ml) | –
2 | 28F2, recombinant IgG2c antibody (antibody, V domains shown) VH: QIQLVQSGPDLKKPGETVKISCKASGYTFTNYAMHWMKQAPGKALKWMGWINTYTGEPTFADDFKGRFAFSLETSASTAYLQINSLKNEDMATYFCAREGYYDRSHYFDYWGQGTTLTVSS VL: DVLMTQTPLSLPVSLGDQASISCRSSLSLVHGDGNTYLEWYLQKPGQSPKLLIYKVSNRFSGVPDRFSGSGSGTDFTLKISRVEAEDLGVYYCLQGSHIPFTFGSGTKLEIK | 9830 | – | ~0.1
3 | 7C7, recombinant IgG2c antibody (antibody, V domains shown) VH: EVQLVESGGGLVKPGGSLRLSCAASGFTFSSFAMSWVRQSPERRLEWVAEISRGGGYAFYSDTVTGRFTISRDNARNTLFLEMGSLRSEDTAMYYCSRQLTGTDYYAMDYWGQGTSVTVSS VL: DVLLTQTPLSLFVSLGDQASISCRSSQSIVYTNGNTYLEWYLQKPGQSPKLLIYKVSNRFSGVPDRFSGSGSGTDFTLKISRVEAEDLGVYYCFQGSQVPYTFGGGTKLELK | 417 | no binding (tested: 500 ng/ml) | –
4 | 4E6, recombinant IgG2c antibody (antibody, V domains shown, also called recombinant anti-G200 antibody 4E6) VH: EVQLVESGGDLVKPGGSLKLSCAASGFTFSSYAMSWVRQSPEKRLEWVAEISGSGSRDHYTDSVTGRFTVSRDNAKNTLYLEMSSLRSEDTAIYYCARQLTGTDYYGTDYWGQGTSVTVSS VL: DVLMTQIPLSLPVSLGDQASISCRSSQSIVYSNGNTYLEWYLQRPGQSPKLLIYKVSNRFSGVPDRFSGSGSGTDFTLKISRVEAEDLGVYYCFQGSHLPYTFGGGTKLEIK | – | no binding (tested: 500 ng/ml) | –

Results, then the binder that gave them:

Row | Kd [1] [nM] | binding result [2] | EC50 (read off the curve) [3] [µg/mL] | Binder
5 | 299 | no binding (tested: 500 ng/ml) | – | 23D5, recombinant IgG2c antibody (antibody, V domains shown) VH: EVQLVESGGGLVKPGGSLKLSCSASGFTFSRYAMSWVRQSPEKRLEWVAEINSGGSYSFYSDTVTGRFTISRDNAKNTLFLEMSSLRSEDTAIYYCARQLSGTDYYGTDYWGQGTSVTVSS VL: DVLMTQTPLSLPVSHGDQASISCRSSQSLLYSNGNTYLEWYLQKPGQSPKLLIYKVSNRFSGVPDRFSGSGSGTDFTLKISRVEAEDLGVYYCFQGSHVPYTFGGGTKLEIK
6 | 141 | no binding (tested: 500 ng/ml) | – | 17G4, recombinant IgG2c antibody (antibody, V domains shown) VH: EVQLVESGGGLVKPGGSLKLSCSASGFTFSRYAMSWVRQSPEKRLEWVAEINSGGSYSFYSDTVTGRFTISRDNAKNTLFLEMSSLRSEDTAIYYCARQLTGTDYYGTDYWGQGTSVTVSS VL: DVLMTQTPLSLPVSHGDQASISCRSSQSLLYSNGNTYLEWYLQKPGQSPKLLIYKVSNRFSGVPDRFSGSGSGTDFTLKISRVEAEDLGVYYCFQGSHVPYTFGGGTKLEIK

— patent US20220242939A1 (BIOARCTIC, published 2022)
